Experimental data taken from patent US20200355707A1.

Legend:
[1] = biological target: prostate specific antigen (ABIN572980) (UniProt P07288); assay: in situ ellipsometry; 100 pM antigen in borate buffer pH 8 on the antibody-modified rSAM
[2] = biological target: prostate specific antigen (ABIN572980) (UniProt P07288); assay: in situ ellipsometry; PSA spiked into 200-fold diluted human serum
[3] = biological target: prostate specific antigen (ABIN572980) (UniProt P07288); assay: in situ ellipsometry, PSA from buffer media
[4] = biological target: prostate specific antigen (ABIN572980) (UniProt P07288); assay: in situ ellipsometry on rSAM-SA-anti-PSA sensor, buffer
[5] = biological target: prostate specific antigen (ABIN572980) (UniProt P07288); assay: ellipsometry; PSA layer formed on rSAM-SA-biotinylated anti-PSA
[6] = biological target: biotinylated prostate specific antigen antibody (ABIN 192197); assay: ellipsometry; biotinylated anti-PSA (5 µM) layer on streptavidin-modified rSAM; binding through biotin
[7] = biological target: biotinylated anti-human-serum-albumin antibody; assay: ellipsometry; biotinylated anti-HSA (5 µM) layer on streptavidin-modified rSAM; binding through biotin

biotinylated prostate specific antigen antibody (ABIN 192197)
film thickness increase [1]: 4 nm
film thickness increase [2]: 4 nm
maximum surface coverage [3]: 2.4 mg/m^2
detection limit [4]: 40 fM
top layer thickness [5]: 4 nm

streptavidine (from UniProt P22629 37-163)
top layer thickness [6]: 4 nm
top layer thickness [7]: 3.4 nm
